According to PMC9482650, “Quantitative fragmentomics allow affinity mapping of interactomes” (Nature Communications, 2022):
Blank lines part the entries; values can stand above or below the binder they belong to.

Key:
Test in all cases: holdup assay
Design in all cases: key: below the threshold = too weak to quantify, mostly under pKd 3.1 to 4
[1] = target: T1, ARHGAP21, Q5T5U3
T1 sequence (Q5T5U3 45-169, limits assumed, looked up): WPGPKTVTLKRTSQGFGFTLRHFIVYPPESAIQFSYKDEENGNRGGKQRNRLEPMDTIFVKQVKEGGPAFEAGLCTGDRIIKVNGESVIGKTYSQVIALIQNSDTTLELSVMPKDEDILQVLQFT

[2] = target: DLG1_1, Q12959
[3] = target: DLG1_2, Q12959
[4] = target: DLG1_3, Q12959
[5] = target: DLG2_2, Q15700
Sequence of DLG2_2, Q15700 (Q15700 189-283): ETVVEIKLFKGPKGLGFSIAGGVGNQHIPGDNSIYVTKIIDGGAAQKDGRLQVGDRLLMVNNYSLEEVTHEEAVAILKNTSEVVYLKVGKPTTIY

[6] = target: T2, DLG3_3, Q92796
T2 sequence (Q92796 374-475, limits assumed, looked up): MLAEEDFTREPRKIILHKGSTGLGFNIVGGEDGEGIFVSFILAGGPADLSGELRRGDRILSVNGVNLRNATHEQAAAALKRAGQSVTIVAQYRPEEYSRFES

[7] = target: FRMPD4, Q14CM0
Sequence of FRMPD4, Q14CM0 (Q14CM0 67-160): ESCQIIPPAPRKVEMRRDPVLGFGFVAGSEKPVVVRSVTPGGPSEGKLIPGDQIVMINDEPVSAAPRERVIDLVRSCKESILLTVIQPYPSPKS

[8] = target: GRASP, Q7Z6J2
Sequence of GRASP, Q7Z6J2 (Q7Z6J2 96-193): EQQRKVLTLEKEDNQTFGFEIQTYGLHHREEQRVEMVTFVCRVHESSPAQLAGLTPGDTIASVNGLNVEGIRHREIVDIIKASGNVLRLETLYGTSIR

[9] = target: GRIP2_3, Q9C0E4
Sequence of GRIP2_3, Q9C0E4 (Q9C0E4 238-339): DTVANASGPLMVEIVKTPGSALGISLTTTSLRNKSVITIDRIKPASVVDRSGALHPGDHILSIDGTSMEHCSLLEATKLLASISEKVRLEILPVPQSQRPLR

[10] = target: GRIP2_5, Q9C0E4
Sequence of GRIP2_5, Q9C0E4 (Q9C0E4 544-642): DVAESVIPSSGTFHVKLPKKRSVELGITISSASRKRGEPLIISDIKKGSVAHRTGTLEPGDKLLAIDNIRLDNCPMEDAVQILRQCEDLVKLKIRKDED

[11] = target: GRIP2_7, Q9C0E4
Sequence of GRIP2_7, Q9C0E4 (Q9C0E4 934-1023): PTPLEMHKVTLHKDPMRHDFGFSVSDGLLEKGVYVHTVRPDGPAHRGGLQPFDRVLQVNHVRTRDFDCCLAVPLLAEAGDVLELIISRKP

[12] = target: IL16_3, Q14005
Sequence of IL16_3, Q14005 (Q14005 1107-1207): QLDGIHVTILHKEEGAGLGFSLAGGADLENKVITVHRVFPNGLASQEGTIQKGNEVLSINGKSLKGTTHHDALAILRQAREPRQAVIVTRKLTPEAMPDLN

[13] = target: Inadl_10, Q8NI35
Sequence of Inadl_10, Q8NI35 (Q8NI35 1673-1763): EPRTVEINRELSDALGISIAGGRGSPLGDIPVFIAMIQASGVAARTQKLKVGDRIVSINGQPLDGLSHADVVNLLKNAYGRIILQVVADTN

[14] = target: Inadl_5, Q8NI35
Sequence of Inadl_5, Q8NI35 (Q8NI35 673-780): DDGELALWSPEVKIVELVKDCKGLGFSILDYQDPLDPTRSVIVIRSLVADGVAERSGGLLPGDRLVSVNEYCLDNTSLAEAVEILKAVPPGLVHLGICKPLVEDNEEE

[15] = target: LDB3, O75112
Sequence of LDB3, O75112 (O75112 1-94): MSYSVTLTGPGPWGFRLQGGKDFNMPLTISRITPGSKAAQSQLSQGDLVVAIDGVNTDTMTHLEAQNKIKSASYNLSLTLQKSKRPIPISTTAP

[16] = target: T3, LIN7A, O14910
T3 sequence (O14910 103-200, limits assumed, looked up): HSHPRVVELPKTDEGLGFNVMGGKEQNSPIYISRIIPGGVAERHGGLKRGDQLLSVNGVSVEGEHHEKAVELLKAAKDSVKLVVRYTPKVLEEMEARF

[17] = target: T4, LIN7B, Q9HAP6
T4 sequence (Q9HAP6 88-185, limits assumed, looked up): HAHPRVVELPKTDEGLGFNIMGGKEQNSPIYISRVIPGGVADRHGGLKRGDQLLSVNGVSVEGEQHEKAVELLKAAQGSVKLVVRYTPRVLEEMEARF

[18] = target: LNX1_3, Q8TBB1
Sequence of LNX1_3, Q8TBB1 (Q8TBB1 500-596): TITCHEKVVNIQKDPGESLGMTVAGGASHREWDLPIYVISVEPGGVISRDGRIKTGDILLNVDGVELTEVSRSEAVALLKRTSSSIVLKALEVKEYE

[19] = target: MAGI3_2, Q5TCQ9
Sequence of MAGI3_2, Q5TCQ9 (Q5TCQ9 398-503): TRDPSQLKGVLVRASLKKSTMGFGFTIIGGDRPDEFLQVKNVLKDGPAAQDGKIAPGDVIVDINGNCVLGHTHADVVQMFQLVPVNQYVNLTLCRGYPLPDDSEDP

[20] = target: MAST2, Q6P0Q8
Sequence of MAST2, Q6P0Q8 (Q6P0Q8 1099-1202): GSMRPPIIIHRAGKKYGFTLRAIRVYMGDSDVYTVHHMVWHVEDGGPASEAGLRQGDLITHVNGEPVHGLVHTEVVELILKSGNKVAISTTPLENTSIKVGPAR

[21] = target: T5, MPDZ_5, O75970
T5 sequence (O75970 695-796, limits assumed, looked up): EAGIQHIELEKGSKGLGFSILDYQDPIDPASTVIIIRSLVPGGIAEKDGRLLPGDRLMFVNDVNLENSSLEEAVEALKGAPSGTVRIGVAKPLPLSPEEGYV

[22] = target: T6, PARD3B_1, Q8TEW8
T6 sequence (Q8TEW8 196-299, limits assumed, looked up): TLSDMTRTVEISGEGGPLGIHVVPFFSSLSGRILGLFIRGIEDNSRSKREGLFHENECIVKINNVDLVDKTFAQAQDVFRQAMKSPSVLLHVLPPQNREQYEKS

[23] = target: T7, PCLO, Q9Y6V0
T7 sequence (Q9Y6V0 4491-4600, limits assumed, looked up): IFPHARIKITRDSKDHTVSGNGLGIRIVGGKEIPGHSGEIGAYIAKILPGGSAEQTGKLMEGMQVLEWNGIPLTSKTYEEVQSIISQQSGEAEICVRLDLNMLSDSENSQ

[24] = target: T8, PDZD7_3, Q9H5P4
T8 sequence (Q9H5P4 857-944, limits assumed, looked up): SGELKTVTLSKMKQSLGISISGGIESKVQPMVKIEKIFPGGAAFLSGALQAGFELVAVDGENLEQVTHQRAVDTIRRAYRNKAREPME

[25] = target: PICK1, Q9NRD5
Sequence of PICK1, Q9NRD5 (Q9NRD5 17-115): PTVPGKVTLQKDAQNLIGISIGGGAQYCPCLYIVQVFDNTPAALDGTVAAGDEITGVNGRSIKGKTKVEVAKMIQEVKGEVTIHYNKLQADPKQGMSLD

[26] = target: T9, SNTG2, Q9NY99
T9 sequence (Q9NY99 68-166, limits assumed, looked up): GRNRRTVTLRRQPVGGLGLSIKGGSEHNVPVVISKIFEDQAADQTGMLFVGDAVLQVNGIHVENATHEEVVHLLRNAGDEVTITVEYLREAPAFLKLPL

[27] = target: TJP1_3, Q07157
Sequence of TJP1_3, Q07157 (Q07157 416-512): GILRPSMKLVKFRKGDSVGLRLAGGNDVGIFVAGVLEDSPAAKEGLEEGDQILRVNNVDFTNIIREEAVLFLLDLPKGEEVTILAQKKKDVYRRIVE

[28] = target: T10, TX1BP3, O14907
T10 sequence (O14907 10-122, limits assumed, looked up): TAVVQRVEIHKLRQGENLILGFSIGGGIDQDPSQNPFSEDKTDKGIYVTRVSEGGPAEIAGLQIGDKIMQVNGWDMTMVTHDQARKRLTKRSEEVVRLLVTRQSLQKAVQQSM

[29] = plain residues with an end cap or a label only (N-terminal biotin on a linker: ttds)
[30] = plain residues with an end cap or a label only (N-terminal biotin on a linker: ado-ado)
[31] = plain residues with an end cap or a label only (N-terminal biotin on a linker: gsgsgs; C-terminal amide)

- pKd [1, 29]: below the threshold
- pKd [2, 29]: below the threshold
- pKd [3, 29]: 3.56
- pKd [4, 29]: below the threshold
- pKd [5, 29]: below the threshold
- pKd [6, 29]: below the threshold
- pKd [7, 29]: below the threshold
- pKd [8, 29]: below the threshold
- pKd [9, 29]: below the threshold
- pKd [10, 29]: below the threshold
- pKd [11, 29]: below the threshold
- pKd [12, 29]: below the threshold
- pKd [13, 29]: below the threshold
- pKd [14, 29]: below the threshold
- pKd [15, 29]: below the threshold
- pKd [16, 29]: below the threshold
- pKd [17, 29]: below the threshold
- pKd [18, 29]: below the threshold
- pKd [19, 29]: below the threshold
- pKd [20, 29]: 4.3
- pKd [21, 29]: below the threshold
- pKd [22, 29]: below the threshold
- pKd [23, 29]: below the threshold
- pKd [24, 29]: below the threshold
- pKd [25, 29]: below the threshold
- pKd [26, 29]: below the threshold
- pKd [27, 29]: below the threshold
- pKd [28, 29]: below the threshold
Binder: GGPKEEESPV [SLC16A1, P53985]

- pKd [1, 30]: below the threshold
- pKd [2, 30]: below the threshold
- pKd [3, 30]: 4.13
- pKd [4, 30]: 3.52
- pKd [5, 30]: 3.86
- pKd [6, 30]: below the threshold
- pKd [7, 30]: 4.04
- pKd [8, 30]: 4.62
- pKd [9, 30]: below the threshold
- pKd [10, 30]: below the threshold
- pKd [11, 30]: below the threshold
- pKd [12, 30]: below the threshold
- pKd [13, 30]: below the threshold
- pKd [14, 30]: below the threshold
- pKd [15, 30]: below the threshold
- pKd [16, 30]: below the threshold
- pKd [17, 30]: 3.89
- pKd [18, 30]: below the threshold
- pKd [19, 30]: below the threshold
- pKd [20, 30]: 5.44
- pKd [21, 30]: below the threshold
- pKd [22, 30]: 3.71
- pKd [23, 30]: below the threshold
- pKd [24, 30]: 4.72
- pKd [25, 30]: below the threshold
- pKd [26, 30]: below the threshold
- pKd [27, 30]: below the threshold
- pKd [28, 30]: below the threshold
Binder: EEPEERHTEL [CES2, O00748]

- pKd [1, 31]: below the threshold
- pKd [2, 31]: below the threshold
- pKd [3, 31]: below the threshold
- pKd [4, 31]: below the threshold
- pKd [5, 31]: below the threshold
- pKd [6, 31]: below the threshold
- pKd [7, 31]: below the threshold
- pKd [8, 31]: below the threshold
- pKd [9, 31]: below the threshold
- pKd [10, 31]: below the threshold
- pKd [11, 31]: below the threshold
- pKd [12, 31]: below the threshold
- pKd [13, 31]: below the threshold
- pKd [14, 31]: below the threshold
- pKd [15, 31]: below the threshold
- pKd [16, 31]: below the threshold
- pKd [17, 31]: 3.67
- pKd [18, 31]: below the threshold
- pKd [19, 31]: below the threshold
- pKd [20, 31]: below the threshold
- pKd [21, 31]: below the threshold
- pKd [22, 31]: below the threshold
- pKd [23, 31]: below the threshold
- pKd [24, 31]: below the threshold
- pKd [25, 31]: below the threshold
- pKd [26, 31]: below the threshold
- pKd [27, 31]: below the threshold
- pKd [28, 31]: 3.92
Binder: ELIQDTSTSFSTTREW [ARAP3_int, Q8WWN8]
